Patent US20220144945A1 (Biogen, published 2022)

Molecular target: T1, LINGO-1 ectodomain (human, UniProt Q96FE5 42-561)
T1 construct: also called Sp35
T1 sequence: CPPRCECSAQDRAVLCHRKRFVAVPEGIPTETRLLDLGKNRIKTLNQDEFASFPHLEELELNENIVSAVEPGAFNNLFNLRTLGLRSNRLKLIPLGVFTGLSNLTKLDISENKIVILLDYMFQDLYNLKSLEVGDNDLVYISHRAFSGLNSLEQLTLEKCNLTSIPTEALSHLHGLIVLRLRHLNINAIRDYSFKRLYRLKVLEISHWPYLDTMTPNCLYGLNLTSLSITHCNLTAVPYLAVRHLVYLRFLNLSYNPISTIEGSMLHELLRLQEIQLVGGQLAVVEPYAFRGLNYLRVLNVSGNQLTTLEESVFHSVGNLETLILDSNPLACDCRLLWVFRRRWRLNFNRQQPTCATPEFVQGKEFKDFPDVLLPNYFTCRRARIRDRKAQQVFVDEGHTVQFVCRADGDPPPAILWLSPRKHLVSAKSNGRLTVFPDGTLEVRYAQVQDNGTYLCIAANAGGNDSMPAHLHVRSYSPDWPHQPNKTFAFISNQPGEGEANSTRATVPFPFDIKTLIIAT
Assay: method not stated

B1: Li81 (antibody, human IgG1, kappa, V domains shown)
VH: EVQLLESGGGLVQPGGSLRLSCAASGFTFSAYEMKWVRQAPGKGLEWVSVIGPSGGFTFYADSVKGRFTISRDNSKNTLYLQMNSLRAEDTAVYYCATEGDNDAFDIWGQGTTVTVSS
VL: DIQMTQSPATLSLSPGERATLSCRASQSVSSYLAWYQQKPGQAPRLLIYDASNRATGIPARFSGSGSGTDFTLTISSLEPEDFAVYYCQQRSNWPMYTFGQGTKLEIKR
notes: also called anti-LINGO-1 antibody; anti-Lingo-1
- Kd: ≤ 0.02 nM

B2: Fab of Li81 (Fab, V domains shown)
VH: B1 VH
VL: DIQMTQSPATLSLSPGERATLSCRASQSVSSYLAWYQQKPGQAPRLLIYDASNRATGIPARFSGSGSGTDFTLTISSLEPEDFAVYYCQQRSNWPMYTFGQGTKLEIK
notes: also called Li81 Fab
- Kd: ≤ 0.05 nM
